{"source": "patent US20090041777A1", "about": "(UNIVERSITY OF MASSACHUSETTS, published 2009)", "binders": {"B1": {"name": "HuMab 17C7 (antibody, V domains shown)", "VH": "QVQLVESGGGVVQPGRSLRLSCAASGFTFSTYAMHWVRQAPGKGLEWVAVVSYDGRTKDYADSVKGRFTISRDNSKNTLYLQMNSLRTEDTAVYFCARERFSGAYFDYWGQGTLVTVSS", "VL": "EIVLTQSPATLSLSPGERATLSCRASQSVSSYLAWYQQKPGQAPRLLIYDASNRATGIPARFSGSGSGTDFTLTISSLEPEDFAVYSCQQRNNWPPTFGGGTKVEIK"}}, "key": {"[1]": {"molecular_target": "T1, ERA-CO glycoprotein (codon-optimized full-length rabies G glycoprotein, ERA strain, amino acids 1-524, … (rabies virus, ERA strain, UniProt P03524 20-524))", "T1 sequence": "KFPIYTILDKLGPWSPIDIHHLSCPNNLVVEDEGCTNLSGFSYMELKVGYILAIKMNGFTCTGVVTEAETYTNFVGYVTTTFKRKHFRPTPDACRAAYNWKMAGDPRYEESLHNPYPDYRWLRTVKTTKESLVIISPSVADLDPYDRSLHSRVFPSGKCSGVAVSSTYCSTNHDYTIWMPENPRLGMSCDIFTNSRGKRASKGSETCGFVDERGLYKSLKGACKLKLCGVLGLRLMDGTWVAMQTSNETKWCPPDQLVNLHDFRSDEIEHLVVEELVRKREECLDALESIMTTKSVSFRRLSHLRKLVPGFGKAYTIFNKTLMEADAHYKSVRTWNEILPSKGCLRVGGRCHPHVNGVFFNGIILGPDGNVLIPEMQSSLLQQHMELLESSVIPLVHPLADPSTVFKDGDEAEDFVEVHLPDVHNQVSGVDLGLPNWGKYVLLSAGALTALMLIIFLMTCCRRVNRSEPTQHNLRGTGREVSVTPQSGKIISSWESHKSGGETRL", "assay": "flow cytometry on transfected 293T cells, PE anti-human IgG"}, "[2]": {"molecular_target": "T2, ERA-CO20-439 (secreted soluble ectodomain of codon-optimized ERA rabies G glycoprotein, Myc/His tagged) (rabies virus, ERA strain, UniProt P03524 20-439)", "T2 sequence": "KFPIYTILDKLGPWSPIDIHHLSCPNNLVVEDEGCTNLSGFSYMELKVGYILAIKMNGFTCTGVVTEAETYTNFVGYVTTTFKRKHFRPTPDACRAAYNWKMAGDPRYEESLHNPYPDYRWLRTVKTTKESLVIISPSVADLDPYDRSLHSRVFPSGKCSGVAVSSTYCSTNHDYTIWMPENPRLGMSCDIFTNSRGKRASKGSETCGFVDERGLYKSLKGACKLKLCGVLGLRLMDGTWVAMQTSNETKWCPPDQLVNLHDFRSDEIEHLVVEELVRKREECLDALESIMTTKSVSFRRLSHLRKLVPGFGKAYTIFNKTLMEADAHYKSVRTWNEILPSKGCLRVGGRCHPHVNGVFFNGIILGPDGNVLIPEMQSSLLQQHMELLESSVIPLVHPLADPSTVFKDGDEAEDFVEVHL", "assay": "Biacore (SPR) on the ectodomain region of codon-optimized rabies G glycoprotein"}}}
{"binder": "B1", "values": [{"measurement": "EC50 (read off the curve)", "setting": "[1]", "result": "~30", "unit": "nM"}, {"measurement": "Kd", "setting": "[2]", "result": "≤ 13.6", "unit": "nM"}]}
